For 13 molecules, binding result and Kd results are on record in patent US20230295635, “DNA APTAMERS FOR EOSINOPHIL PEROXIDASE DETECTION” (McMaster University, published 2023).

The target in data set [1] is T1, Eosinophil peroxidase (EPX) (UniProt P11678;P11678 P11678:140-250,P11678:251-715). Nature of the data set: EMSA; value only in figure; weaker than EAP1-05; 1x SB pH 9. Particulars: tags: Cedarlane #342-60-0.1; untagged commercial protein; label: fluorescent (FAM).
The target of data set [2] is T1, Eosinophil peroxidase (EPX). The experiment in a line: pulldown; HB (50 mM HEPES, 300 mM NaCl, 15 mM MgCl2, pH 7.5), TMB signal; LoD 1 nM in buffer, 1.25 nM in sputum. Particulars: tags: Cedarlane #342-60-0.1; untagged commercial protein; label: 5'-biotin. As to the method:
(§1) EPX pulldown assay: Biotinylated EAP1-05T3 was immobilized on streptavidin-coated agarose beads as follows: 200 µL of streptavidin-coated agarose slurry was transferred into a 1.5 mL Eppendorf tube and washed with 500 µL of 1x HB (50 mM HEPES, 300 mM NaCl, 15 mM MgCl2, 0.01% Tween20, pH 7.5). 1 nmole of biotinylated EAP1-05T3 was added to this slurry and rotated gently for 1 h to bind the aptamers with the beads. The beads were washed 5x with 500 µL of 1x HB each time and finally suspended in 1000 µL of 1x HB and stored at 4° C. until use. 50 µL of this bead slurry was used for each pull-down experiment.
Sensitivity test in buffer: EPX stocks of different concentrations (10.0, 5.0, 2.5, 1.25, 0.625, 0.312, 0.156, 0.078, 0.039 and 0.019 µM) were made in 1x HB. Similar to specificity test, 50 µL of aptamer conjugated beads slurry was transferred in each fresh Eppendorf tube (3 tubes for each concentration for triplicate experiments). 1.0 µL of each protein was added to their respected tube and incubated at room temperature for 30 minutes with occasional pipetting for homogeneous binding. Only buffer was added in the control experiment tube that was labelled as buffer. […] This yellow solution was immediately transferred into 96 well plate and the OD was measured at 450 nm using a Tecan plate reader. […]

A further data set concerns the target Myeloperoxidase (MPO) (UniProt P05164;P05164 P05164:165-273,P05164:279-745). Nature of the data set: pulldown; HB, 1 uM protein; no TMB signal. Particulars: tags: Cedarlane #426-10-0.1; untagged commercial protein; chain copies: 2; label: 5'-biotin.
The target of a further data set is Lactoperoxidase (LPO) (UniProt P80025 P80025:101-712). The experiment in a line: pulldown; HB, 1 uM protein; no TMB signal.
Data set [3] has as its target Bovine serum albumin (BSA) (Bos taurus, UniProt P02769 P02769:25-607). Nature of the data set: pulldown; HB; no TMB signal (BSA has no peroxidase activity). Particulars: label: 5'-biotin. As to the method: as §1
Specificity test: 50 µL of aptamer-conjugated beads from above were aliquoted in each tube and labelled for each experiment: Buffer, EPX, MPO, LPO, TPO and BSA respectively. 1 µM stock of each of protein was made in 1x HB. Next, 1.0 µL of each protein was added to their respected tube and incubated at room temperature for 30 minutes with occasional pipetting for homogeneous binding. Only buffer was added in the control experiment tube that was labelled as buffer. Then the beads were sedimented by brief centrifugation using a benchtop centrifuge and washed 3× using 300 µL 1x HB. Next, the beads were resuspended in 25 µL HB. […] This yellow solution was immediately transferred into 96 well plate and the OD was measured at 450 nm using Tecan plate reader. […]

Data set [4] deals with T1, Eosinophil peroxidase (EPX). The experiment in a line: FP; PBS pH 7.4, room temperature. Particulars: tags: Cedarlane #342-60-0.1, untagged commercial protein, label: 5'-FAM.
Data set [5] has the same target. The experiment in a line: EMSA; 1x SB (50 mM Tris, 1 M NaCl, 5 mM MgCl2, 2 mM KCl, pH 9), poly(dI-dC); from loss of free aptamer band. Particulars: tags: Cedarlane #342-60-0.1; untagged commercial protein; label: 5'-FAM; 3' stem loop. (In general: In EMSA bound probe runs differently from free probe, usually more slowly.)
For data set [6] the target is unchanged. Nature of the data set: FP; 0.5x SB, room temperature. Particulars: tags: Cedarlane #342-60-0.1; untagged commercial protein; label: 5'-FAM; 3' stem loop.
Data set [7] has the same target. The experiment in a line: EMSA; 3 nM aptamer, 5 nM EPX; small positive impact of middle deletion. Particulars: tags: Cedarlane #342-60-0.1; untagged commercial protein; label: 5'-FAM. As to the method:
Next, EAP1-05 was subjected to truncation and deletion experiments to shorten the aptamer and improve its binding ability. The aptamer was truncated by removing various DNA segments (FIG. 2A), and the fraction of aptamer bound to EPX was assessed by EMSA using 3 nM of aptamer and a single EPX concentration of 5 nM and calculating the decrease in free aptamer fluorescence in EMSA gels.

T1 sequence (P11678 140-250, chain 1 of 2): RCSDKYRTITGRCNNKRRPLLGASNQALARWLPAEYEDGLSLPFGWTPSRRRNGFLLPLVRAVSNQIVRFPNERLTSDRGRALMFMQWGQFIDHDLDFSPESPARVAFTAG
T1 sequence (P11678 251-715, chain 2 of 2): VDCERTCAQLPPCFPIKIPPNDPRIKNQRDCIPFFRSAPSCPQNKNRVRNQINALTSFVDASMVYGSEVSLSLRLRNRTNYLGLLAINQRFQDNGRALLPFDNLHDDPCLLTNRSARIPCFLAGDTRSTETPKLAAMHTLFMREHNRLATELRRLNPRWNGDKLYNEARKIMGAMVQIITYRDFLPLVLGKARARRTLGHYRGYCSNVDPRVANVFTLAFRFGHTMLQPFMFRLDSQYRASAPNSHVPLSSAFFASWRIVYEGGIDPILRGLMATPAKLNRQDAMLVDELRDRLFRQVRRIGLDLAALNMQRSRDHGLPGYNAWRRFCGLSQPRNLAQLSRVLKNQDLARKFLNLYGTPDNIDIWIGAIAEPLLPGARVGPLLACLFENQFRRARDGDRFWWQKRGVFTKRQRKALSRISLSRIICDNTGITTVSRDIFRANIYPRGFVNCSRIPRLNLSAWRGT
Bovine serum albumin (BSA), sequence (P02769 25-607, one chain of several): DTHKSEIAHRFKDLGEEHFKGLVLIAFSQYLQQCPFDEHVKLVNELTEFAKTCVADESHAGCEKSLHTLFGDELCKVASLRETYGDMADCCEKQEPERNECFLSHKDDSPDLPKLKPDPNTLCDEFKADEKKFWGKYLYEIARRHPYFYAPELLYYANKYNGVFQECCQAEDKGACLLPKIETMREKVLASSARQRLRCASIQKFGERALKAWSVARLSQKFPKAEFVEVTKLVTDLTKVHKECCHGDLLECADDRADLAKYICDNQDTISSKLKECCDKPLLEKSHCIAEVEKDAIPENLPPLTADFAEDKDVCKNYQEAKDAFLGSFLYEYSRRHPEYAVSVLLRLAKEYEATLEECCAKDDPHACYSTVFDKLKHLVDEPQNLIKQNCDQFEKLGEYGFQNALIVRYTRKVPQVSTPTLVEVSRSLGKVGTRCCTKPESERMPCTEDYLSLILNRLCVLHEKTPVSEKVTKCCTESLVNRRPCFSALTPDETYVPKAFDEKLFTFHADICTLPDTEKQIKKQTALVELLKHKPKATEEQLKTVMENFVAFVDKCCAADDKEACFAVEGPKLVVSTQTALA
Myeloperoxidase (MPO), sequence (P05164 165-273, chain 1 of 2): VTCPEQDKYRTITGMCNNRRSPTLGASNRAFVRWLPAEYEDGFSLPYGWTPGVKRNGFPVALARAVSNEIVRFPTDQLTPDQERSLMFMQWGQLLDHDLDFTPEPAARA
Myeloperoxidase (MPO), sequence (P05164 279-745, chain 2 of 2): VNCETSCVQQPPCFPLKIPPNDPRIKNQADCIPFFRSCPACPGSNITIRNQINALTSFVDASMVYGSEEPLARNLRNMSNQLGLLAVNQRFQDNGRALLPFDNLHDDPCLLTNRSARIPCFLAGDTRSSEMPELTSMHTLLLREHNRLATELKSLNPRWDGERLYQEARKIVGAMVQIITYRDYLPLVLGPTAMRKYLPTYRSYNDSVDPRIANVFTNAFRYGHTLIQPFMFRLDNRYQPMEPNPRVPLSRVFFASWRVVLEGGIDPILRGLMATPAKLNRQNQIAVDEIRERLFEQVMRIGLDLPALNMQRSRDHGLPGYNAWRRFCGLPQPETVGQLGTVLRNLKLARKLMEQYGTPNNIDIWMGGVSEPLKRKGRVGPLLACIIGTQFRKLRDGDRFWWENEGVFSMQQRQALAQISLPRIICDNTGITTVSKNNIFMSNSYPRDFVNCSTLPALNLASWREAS

B1: EAP1-15 (ssDNA)
DNA: ATGCCATCCTACCAACCGGGGGAGCAAGGTGTAGGGGTAGGGGGCCATGCGAGGGGGAGCTCTGAACTGG
As for B1, the binding result in data set [1] was “binds”.

B2: EAP1-05T3BT (ssDNA)
DNA: TTTTTTTTTTATGCCATCCTACCAACCAGGGGGACAGTGCAAAGGGAGCTCTGAACTCG
Turning to B2, the binding result is on record as “binds” in [2], “no binding” with Myeloperoxidase (MPO), “no binding” with Lactoperoxidase (LPO) and “no binding” in [3].

B3: EAP1-01 (ssDNA)
DNA: ATGCCATCCTACCAACCACGGGGATCGGGTGGGGGCTAGGCGGCGTGTGCACGGGGGAGCTCTGAACTGG
On to B3, for which, in data set [1], the binding result is given as “binds”.

B4: EAP1-20 (ssDNA)
DNA: ATGCCATCCTACCAACAGCAGCGGGCGGGGGCCAGTGGGGGATGTAGCCGGGGGTGGAGCTCTGAACTGG
For B4, in data set [1], the binding result was “binds”.

B5: EAP2-01 (ssDNA)
DNA: ATGCCATCCTACCAACCGCGGGAGGAGACTGGTGTAGGGGGCATGGGATGGCCTGGGAGCTCTGAACTGG
Turning to B5, the binding result in data set [1] is recorded as “binds”.

B6: EAP1-08 (ssDNA)
DNA: ATGCCATCCTACCAACCAGTTGCCGGTGGGGTGACCCGGTGGGGGAGGGTGTGGGGGAGCTCTGAACTGG
As for B6, the binding result in data set [1] is listed as “binds”.

ATGCCATCCTACCAACCAGGGGGACAGTGCAAAGGGAGCTCTGAACTCG (ssDNA) [EAP1-05T3]: the Kd (in general, the free concentration of one partner at which half of the binding sites on the other are occupied at equilibrium, for simple one-to-one binding) in [4] was determined as 4.8 nM.

B7: EAP1-05 (ssDNA)
DNA: ATGCCATCCTACCAACCAGGGGGACAGTGCAAAGGGGTAGGGAGGGGGCTAGGGGGGAGCTCTGAACTGG
As for B7, the Kd amounted to 9.2 nM in data set [5], 4.3 nM in data set [4] (3' stem loop) and 36.6 nM in [6].

B8: EAP2-10 (ssDNA)
DNA: ATGCCATCCTACCAACAGGGAGGGGGCGGTTAGGGAATGGTGGTCCGGGCGGGGTAGAGCTCTGAACTGG
For B8, in data set [1], the binding result is given as “binds”.

B9: EAP2-09 (ssDNA)
DNA: ATGCCATCCTACCAACACGACCGGTGTAGAGGGGGGTATACGGAATGGGGGTTGTGGAGCTCTGAACTGG
B9: in data set [1], the binding result was “binds”.

B10: EAP2-18 (ssDNA)
DNA: ATGCCATCCTACCAACATGGGGATATCCGGCGGGGGCATCAGGGGGGAGTGCGGGTGAGCTCTGAACTGG
Take B10: the binding result in data set [1] is listed as “binds”.

B11: EAP2-40 (ssDNA)
DNA: ATGCCATCCTACCAACCAGGGGGCGCGGGAGGGGGCCTGACGTCGAGGGGGTTGGGGAGCTCTGAACTGG
For the molecule B11, in data set [1], the binding result is “binds”. Consider ATGCCATCCTACCAATAGGGAGGGGGCTAGGGGGGAGCTCTGAACTCG (ssDNA) [EAP1-05T2], for which the binding result in data set [7] was “binds”.
